In the DeepSol protein solubility set:

Assay: soluble on expression in E. coli; label from the status in PepcDB or PDB records

| Sequence | soluble on expression in E. coli |
| --- | --- |
| KDFCASIHRNDSLSLTHELEPFIDSMKNKTGVYVLEDGGGSLITRAWLSEYAEETIDIQYFIFSADNVGLIACDYLVRAADRGVKVRILIDDILVEAGVHEILTLDSHENIEIKIYNPGINLGKNIFNKIGKFTTDFRGANQRMHNKTFIVDHKVVITGGRNIADEYFDYDHEYNFRDRDVLLIGKTATDVQQSFESFWVDALSIPITGLVKEDDVTYTDTSRFERLHQYACNPDNFWPQVRKRISN | not soluble |
| KFFNLFLKKGNKINPLIGNAGVSAVPDSARISQVIGLEYDPTNYLLMHAM | not soluble |
| KGPNLTEISKKITESNAVVLAVKEVETLLTSIDELAKAIGKKIKSDVSLDNEADHNGSLMSGAYLISTLITKKISAIKDSGELKAEIEKAKKCSEEFTAKLKGEHTDLGKEGVTDDNAKKAILKTNNDKTKGADELEKLFESVKNLSKAAKEMLTNSVKELTSP | soluble |
| KGSTFIKAQDKYEVNILYLISHALVETGNGQSDLSKGIKEGDHHYYNFFGIGAFDEDAVKTGKSFAKQKKWTTPEKAIMGGAWFVRYHYFKNNQLSLYQMRWNPQNPGQHQYASDIQWANNIADLMEKYYDKYGIKKDHIRKKYYK | not soluble |
| KIKRMECFDISHTMGNQTVASCVVFNKEGPLKSDYRRFNIEGITGGDDYAAMEQVLQKRYERDLEEDKIPDIIFIDGGKGQLNRALNVFQHLQVKWDKNRPHLIGVAKGVDRRAGQEVLIISKQDREIHLPDDSLALHLIQHIRDESHNHAISGHRKKRQKAF | not soluble |
| KKEQEQMLKEERKRELEEKVKAVEDRAKRRKLREERAWLLAQGKELPPELSHLDPNSPMREEKKTKDLFELDDDFTAMYKVLDVVKAHKDSWPFLEPVDESYAPNYYQIIKAPMDISSMEKKLNGGLYCTKEEFVNDMKTMFRNCRKYNGESSEYTKMSDNLERCFHRAMMKHFPGEDGDTDEEFWIREDEKREKRRSRAGRSGGSHVWTRSRDPEGSSRKQQPMENGGKSLPPTRRAPSSGDDQSSSSTQPPREVGTSNGRGFSHPLHCGGTPSQAPFLNQMRPAVPGTFGPLRGSDPATLYGSSGVLEPHPGEPVQQRQPFTMQPPVGINSLRGPRLGTPEEKQMCGGLTHLSNMGPHPGSLQLGQISGPSQDGSMYAPAQFQPGFIPPRHGGAPARPPDFPESSEIPPSHMYRSYKYLNRVHSAVWNGNHGATNQGPLGPDEKPHLGPGPSHQPRTLGHVMDSRVMRPPVPPNQWTEQSGFLPHGVPSSGYMRPPCKSAGHRLQPPPVPAPSSLFGAPAQALRGVQGGDSMMDSPEMIAMQQLSSRVCPPGVPYHPHQPAHPRLPGPFPQVAHPMSVTVSAPKPALGNPGRAPENSEAQEPENDQAEPLPGLEEKPPGVGTSEGVYLTQLPHPTPPLQTDCTRQSSPQERETVGPELKSSSSESADNCKAMKGKNPWPSDSSYPGPAAQGCVRDLSTVADRGALSENGVIGEASPCGSEGKGLGSSGSEKLLCPRGRTLQETMPCTGQNAATPPSTDPGLTGGTVSQFPPLYMPGLEYPNSAAHYHISPGLQGVGPVMGGKSPASHPQHFPPRGFQSNHPHSGGFPRYRPPQGMRYSYHPPPQPSYHHYQRTPYYACPQSFSDWQRPLHPQGSPSGPPASQPPPPRSLFSDKNAMASLQGCETLNAALTSPTRMDAVAAKVPNDGQNPGPEEEKLDESMERPESPKEFLDLDNHNAATKRQSSLSASEYLYGTPPPLSSGMGFGSSAFPPHSVMLQTGPPYTPQRPASHFQPRAYSSPVAALPPHHPGATQPNGLSQEGPIYRCQEEGLGHFQAVMMEQIGTRSGIRGPFQEMYRPSGMQMHPVQSQASFPKTPTAATSQEEVPPHKPPTLPLDQS | soluble |
| KKLCGYLSKFGGKGPIRGWKSRWFFYDERKCQLYYSRTAQDANPLDSIDLSSAVFDCKADAEEGIFEIKTPSRVITLKAATKQAMLYWLQQLQMKRWEFHNSPPAP | soluble |
| KKTEWSREEEEKLLHLAKLMPTQWRTIAPIIGRTAAQCLEHYEFLLDKAAQRD | soluble |
| KLEYRISYDDEKEIKAIVFIIGGYGANANIYFLDSYRNYIAKNFDVVAVHVFYHCFCQRRSDVEKYSAYKYFQEEDIENIKNLLNQFHFSYGEINNDNALFLANSLVKHVENLKMQNKLDHNFKLNFTSTFIPPNGDYQNYGIMAAIDHINALKDLVKRFPKFADLPK | not soluble |
| KMFSYEGQVIIVTGDEKSTEFCNTATANYDSFRAGPVFDGTGLNPFCFVAHDFTADYLPNGQAKMFSSNVSYAQGDRIFDDVSTWDDYSLRVNHPLRIAGDRVYLQGHGYAPTFSIQWPNGEKRTQTVQWQPTDPTFFLSDGVVRFDPPAGMNDSVYDRRQHQLAIQGLFAPTASWEGENHELLTSRFPAMTDPAVAIDVYRGDNGLDSGKGQNLFKLDTSLVHSGQLQRLERVNLTKGESVTLDDGTVVTFEGAEEFANYQISHDPTQ | not soluble |
| KNSFNIKLKEDSEMLEEVVVTGYGGKQLRTKVTNSIAKVKDEALKVGLFSNPAQALSGAVAGLKVTQASGSPGAAPKVTLRGGTNFDGSGDPLVIVDGQLRDGMQDINPEDIESMEVLKDAGATAIYGARASNGVILITTKTGKEGR | not soluble |
| KPAAHLIGDPSKQNSLLWRANTDRAFLQDGFSLSNNSLLVPTSGIYFVYSQVVFSGKAYSPKATSSPLYLAHEVQLFSSQYPFHVPLLSSQKMVYPGLQEPWLHSMYHGAAFQLTQGDQLSTHTDGIPHLVLSPSTVFFGAFAL | soluble |
| KPKFFYIKSELNGKVLDIEGQNPAPGSKIITWDQKKGPTAVNQLWYTDQQGVIRSKLNDFAIDASHEQIETQPFDPNNPKRAWIVSGNTIAQLSDRDIVLDIIKSDKEAGAHICAWKQHGGPNQKFIIESE | soluble |
| KQGQTALGVEFGSTRIKSVLIDANNFEVLASGSFEWDNQLVNGIWTYSLDDVWKGLQASYTDLKAEVKDKYDFKLSKIGQIGISAMMHGYLVFDQADKQLAEFRTWRNAITEQAAGELSKLFNFNIPQRWCIAHLYQAILNQEKSVSQIDFMTTLAGYVHWRLTGKKVTGIGDASGIFPIDSNSKDYDQKKLDQFSDLDGVEKQPWDIKRILPKVLLAGQNAGQLTKEGSLLIDPSGDLQDGSVFCPPEGDA | not soluble |
| KRFTADVEQQAEKILSQMTLDEKLSYIGGINWMYTRPLERFGIPRLKMSDGPQGLGTHGPSTAYPCALMLAATWNEQLATEYGSALGKDCRARGVHVLLGPAVNIYRAPMCGRNFEYMGEDPYLTSRMATGYIKGVQGQGVMATIKHFIANNSDYDRDHISSDIDERTLNEIYFPSFRAAVQEAEVGAVMSSYNLLNGIYTTEHPWLLKDVLRQQWGFKGILMSDWGSTHHCIPAVKGGLDLEMPAGSKMQPEELKYYLRTGDITIETIDEKVRHILQTLLAFGFRETQQPDTHIPLKNPQCAQTA | not soluble |
| KRKFACVECRQQKSKCDAHERAPEPCTKCAKKNVPCILKRDFRRTYKRARNEAIEKRFKELTRTLTNLTSDE | soluble |
| KTKNEPKVILELAKESDLPEFQKKLQEAFAIAVIETFGDCEDGPIPSDNDVQESFNAPGAVVYHILQDGKNVGGAVVRINSQTNHNSLDLFYVSPEYHSQGIGLSAWKAIEAQYPDTVLWETVTPYFEKRNINFYVNKCGFHIVEFYNEHHSNPHMHRNGR | soluble |
| KVKELTILYRGSTAPTLASGLTPFHKDSLDVWTDWGVNDIPTAIQITNGGGSTVTPQLKTSAETLKQTMKLYPNAQIYVYGHSLGSMNAQYAIADLDKKDIKRISGGFFYQGPNIYSNLTPKQQDTVKAINALDRLFNFIDRKDYVAIGYGTGDPTIGHLIEVESKKAGLV | not soluble |
| LADTSPMDKKGRKAEDALVVNVRANLYWWEFEYPDYGIITSQELIVPTDQRVYFNLKASDVKHSFWIPSVGGKLDTNTDNENKFFLTFDSKRSKEAGDMFFGKCAELCGPSHALMDFKVKTMSAKEFQGWTKEMKNYKSTAESDLAKQGEELFKEKNCLSCHAVEPNDKRAEAARTAPNLATFGERTKVAGVKEANKENVKAWLKDPDSIKPGNKMTGTYPKLSDSETNALYEYLKGLKAE | not soluble |
| LANKQIESRIIQFDVEFPSDEVAKQLSIEKTVPVYHIIRLRKVEGEPYVIEETYMPSNVISELNEDVLHGSVYRHITETLKLTIAGSHRKIRADKSSALDREYLECAPDDPVLEVEQVAFLNTGEPFEYSFARHRYDKFVFSSVHIRK | not soluble |
| LDPPSGELSLPEDIPGEAKVYFDDEGVPYIHASSDEAAFYAAGWVHASLRLFQMDVFRRVGLGELSGLVGEAGLEADRRAAILGLRSVVDAEWRHIQNNPEFGEIVRIVEAYTAGVNGYISYALKTGRLPVEYRVLGVKPSPWLPQDTLAMAKVLALMLSYSEDDLILDRLVRKWGPEVIADFDIVGRSLNMPHASCDMAVDWGDVTGLEGPYNPLLSVEERREPLHESEPLDLGYNPDPEIIAAVVDRVLYMLSWNAASNNWVVSGSLTVSGNPLLANDPHLSLTAPGIWLPIVISSPSYSLAGVTIPGVPLVVIGRNSHVAWGFTNVGSDFTDFYRYQWVDENRYFYKGRIFGVEKSSIEAYVWDPLARSYRVQEISVARTIHGPVIEWQGEKFAVSYTSARPTFEMIFLWLLNKASSVRDALSAQRYFYGPPQNMVVADSAGNIAYSPVGAYPERATLPTIETGYGPIVNTGFLPFDGSAGEGEWRGFKPYSSLPVLFNPPQGFVATANSKPFEDGCWDGLGWDYADRFRTERIYTLLQERSAEEPLDAGDMRDIQLDVEDLGLKTLVSLMVRVASGDGGHVLERYMDMLAEWAENPQM | not soluble |
| LGFLPKEKKDKIKRFIKYEDALMSLTAEILIRAVVCSKLGIKNESVKFNRTTYGKPYLEGYDDFHFNLSHSGSWVVCAVSSKPVGIDIEKIREVDLDIAKRFFSKEEASDLFAKEDNEKTEYFFELWTLKESYIKADGRGLSLPLNSFFFRIENDNVIFVSESEKKKFFFKRYDIDKGYKLAVCSMESHFPEDVEIKSFEEVCKFLCER | not soluble |
| LGIDLLSYYIEAGSCMIYYNEKPYIDEFQQYVSDNDISTTDVEQYDEWMSEHDVAFYSVQEMGKVIYNKSNVDKLISPAKNMYDYRFTGSYELPVQFSDIEAEVFIYTGFTEKYY | not soluble |
| LITPQYKSEAKLYILSKETTLTSLADLQIGSQLTQDYKVLVSSRPVMEGVINHLKLDYSYKELAGKLTVENPQNTRILSLTVRDENPYMAKQIVDDIANTASDYIGEIMEMVPPKMIEDGVVASEPYSPSIKRN | not soluble |
| LKPDPWADIETRFPVGSRHHARVRNFTNFGVFVEIEEGVDGLIHISDLSWTKKIKHPSEFTEVGADIEVQVIEIDKENRRLSLGHKQLEENPWDVFETVFTVGSIHEGTVIEVMDKGAVVSLPYGVEGFATPKHMVKEDGSQAVLEEKLPFKVIEFNKDAKRIIVSHSRVFEDEQKMAQREANAERKAEAKAAQKEAAAEAANPAQAVEKATLGDLGELAALKEKLSEN | not soluble |
| LKRLFFTVSLAVVLSACQALPLNQSQAIVHDEYVSSGDLLPIEAITTIDGEELDLQQLGKRKLVILFATWCHDSNRLLKALNSSPLLEMEGIEIVAIAREEDLETVTAWRDKRGIKVALAVDNDRSIYRRFASGGIPRLITIGENNKIIKMNLAEGEQQLAKIV | not soluble |
